Tests used:
[1] = target: rat NPR-A (rat) (UniProt P18910); test: cell-based or functional assay
[2] = target: rat NPR-B (rat) (UniProt P16067); test: cell-based or functional assay
Chain of rat NPR-B (rat) (P16067 17-1047): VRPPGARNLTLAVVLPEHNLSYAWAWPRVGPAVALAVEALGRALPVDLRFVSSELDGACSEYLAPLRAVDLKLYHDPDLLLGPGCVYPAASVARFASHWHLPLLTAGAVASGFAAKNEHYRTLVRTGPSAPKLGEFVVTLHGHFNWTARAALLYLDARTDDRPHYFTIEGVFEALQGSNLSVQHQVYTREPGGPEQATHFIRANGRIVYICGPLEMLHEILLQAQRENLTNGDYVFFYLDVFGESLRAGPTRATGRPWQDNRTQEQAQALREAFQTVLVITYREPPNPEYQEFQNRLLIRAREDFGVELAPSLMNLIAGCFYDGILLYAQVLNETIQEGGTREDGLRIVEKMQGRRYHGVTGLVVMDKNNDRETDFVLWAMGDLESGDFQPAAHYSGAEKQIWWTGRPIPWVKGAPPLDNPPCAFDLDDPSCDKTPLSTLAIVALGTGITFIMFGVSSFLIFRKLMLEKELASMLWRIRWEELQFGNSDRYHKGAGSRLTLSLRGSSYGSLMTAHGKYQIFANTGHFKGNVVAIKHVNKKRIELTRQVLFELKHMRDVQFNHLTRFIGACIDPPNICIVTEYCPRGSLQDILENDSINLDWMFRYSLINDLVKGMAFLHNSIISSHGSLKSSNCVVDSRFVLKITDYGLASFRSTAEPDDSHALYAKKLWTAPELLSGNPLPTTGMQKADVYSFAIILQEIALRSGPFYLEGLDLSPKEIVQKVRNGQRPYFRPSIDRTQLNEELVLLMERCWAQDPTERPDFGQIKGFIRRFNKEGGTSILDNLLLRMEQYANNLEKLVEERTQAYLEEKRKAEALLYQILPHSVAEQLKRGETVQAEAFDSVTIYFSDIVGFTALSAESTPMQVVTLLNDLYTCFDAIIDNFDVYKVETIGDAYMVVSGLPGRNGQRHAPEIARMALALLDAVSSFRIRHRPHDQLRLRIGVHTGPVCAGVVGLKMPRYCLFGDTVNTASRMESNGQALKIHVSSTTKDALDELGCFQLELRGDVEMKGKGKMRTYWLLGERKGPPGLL

Chain of rat NPR-A (rat) (P18910 29-1057): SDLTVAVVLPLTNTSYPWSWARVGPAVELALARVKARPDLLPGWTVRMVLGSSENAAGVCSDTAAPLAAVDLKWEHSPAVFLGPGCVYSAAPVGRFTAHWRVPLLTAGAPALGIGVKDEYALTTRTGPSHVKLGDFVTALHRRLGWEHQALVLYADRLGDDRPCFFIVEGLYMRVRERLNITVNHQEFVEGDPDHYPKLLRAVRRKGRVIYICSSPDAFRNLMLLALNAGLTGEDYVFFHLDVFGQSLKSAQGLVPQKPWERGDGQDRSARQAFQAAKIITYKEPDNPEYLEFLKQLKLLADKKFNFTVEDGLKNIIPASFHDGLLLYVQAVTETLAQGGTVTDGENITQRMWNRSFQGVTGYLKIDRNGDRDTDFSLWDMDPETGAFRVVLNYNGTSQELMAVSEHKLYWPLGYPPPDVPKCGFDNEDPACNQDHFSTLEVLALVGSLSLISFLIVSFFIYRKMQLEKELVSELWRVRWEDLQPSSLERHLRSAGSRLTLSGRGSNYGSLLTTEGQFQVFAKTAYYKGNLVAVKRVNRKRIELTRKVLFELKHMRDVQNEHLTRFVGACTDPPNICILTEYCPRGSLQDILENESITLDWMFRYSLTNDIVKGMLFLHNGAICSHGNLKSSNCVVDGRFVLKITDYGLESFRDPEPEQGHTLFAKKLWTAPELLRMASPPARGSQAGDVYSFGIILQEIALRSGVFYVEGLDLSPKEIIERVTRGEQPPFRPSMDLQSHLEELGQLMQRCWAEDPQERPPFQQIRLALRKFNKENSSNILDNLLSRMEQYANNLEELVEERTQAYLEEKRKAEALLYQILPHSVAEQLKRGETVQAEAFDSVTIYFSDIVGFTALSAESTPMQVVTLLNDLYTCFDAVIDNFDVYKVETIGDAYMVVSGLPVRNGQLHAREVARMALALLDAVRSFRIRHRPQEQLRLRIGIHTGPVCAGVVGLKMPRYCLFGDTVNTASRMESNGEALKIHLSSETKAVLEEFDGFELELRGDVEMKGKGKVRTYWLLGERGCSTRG

EC50, fluorescence signal of rat NPR-A / CNGA2 (cGMP biosensor) / GCaMP6 CHO reporter cells [1] [nM]	EC50, luminescence signal of rat NPR-B reporter cells [2] [nM]	Substance
0.22	–	ANP (Bachem, H-2100) (from UniProt P01161 123-150) (peptide)
2.9	–	BNP (Bachem, H-5968) (from UniProt P13205 90-121) (peptide)
–	0.024	CNP (Bachem, H-1296) (from UniProt P23582 105-126) (peptide)

— patent US20250361282A1
